Test results from publication PMC5353710, “Structural insights into the γ-lactamase activity and substrate enantioselectivity of an isochorismatase-like hydrolase from Microbacterium hydrocarbonoxydans” (Scientific Reports, 2017).

Columns and labels:
purified protein [1] = substrate: O=C1N[C@@H]2C=C[C@H]1C2; experiment: purified protein; conditions: 50 mM Tris-HCl pH 7.5, 25 °C, substrate 5 to 200 mM
purified protein [2] = substrate: O=C1N[C@H]2C=C[C@@H]1C2; experiment: purified protein; conditions: 50 mM Tris-HCl pH 7.5, 25 °C, substrate 5 to 200 mM

B1: MhIHL (Mh33H4-5540) (Microbacterium hydrocarbonoxydans) (protein)
chain: MAAPRRTVVLAIDLQAGVTPGCFDEEGVLSRAAALVERARAGGVPVVWVHHDPVGVGTPEWELAAPLHRAEGEPLVRKNYRDSFADTTLRETLDELGATHLVITGAQSDFCVRTTMQRAAAEGYDVTLVSDAHTTVDTEWEGVRISGEQIVAHTNMYFSGLRYPGQEFVIATHDHVAL
Km (purified protein [1]): 12.9 mM
kcat (purified protein [1]): 203 s⁻¹
kcat/Km (purified protein [1]): 15800 M⁻¹ s⁻¹
Km (purified protein [2]): 34.2 mM
kcat (purified protein [2]): 19.8 s⁻¹
kcat/Km (purified protein [2]): 580 M⁻¹ s⁻¹
